Laboratory results taken from the DeepSol protein solubility set.

assay: soluble on expression in E. coli; label from the status in PepcDB or PDB records

Sequence	soluble on expression in E. coli
MPHNSVKHSTRLDVIPLKTAEKHPNSQRRFHVMSKPGGSKCNLDCQYCFYLHKDELLHQPKQPMMDDTTLEAFIKSYIESQDGHEIVFSWQGGEPTLLGLDYFKKIVQLQNKYRPSGVKIENDLQTNGILLNDEWCQFLKDNGFLVGLSIDGPKELHDKYRVTRSGKPTFNLVMAAAKRLQEHHVPFNSLVVVNRHNAKHPLDVYRFLTKELGATYIQFTPCVEAKDFTTTAPQFWNETMIPNKGSELAKPGHPMSIVTDWSVDPDDWGNFLNTVFVEWVNNDLGRVLVNLFETAVAQVMGKESQLCVTAEFCGKGLAMEHNGDVFSCDHYVYPEYKLGNIHDRGLNEFAFSIRQHGFGMAKRDSLPSYCKSCPHLKLCWGECPKNRLINTPNGEPGLNYLCSGIRAFFDESLPMLTGLSVLLQRQENTQK	not soluble
MPHTNGKGGGAQKWAGNNKRKRNFDGEQDPSVRKALKEKRLLKKRKQDLKGQEETMLDEVEQKYQEMLKKSSRTFLRFEDFPLSWRTLEGLKDNDYTKPTEIQRDTIAYSLTGSDVVGAAKTGSGKTLALVIPVLEALWRAKWSPDYGLGALIISPTRELALQTFSTINAVGAHHGFSCGLVIGGSDVAFERNRISGINIIVCTPGRLLQHMDENAQMSCDSLQVLVLDEADRMLDMGFSKQLNSIINNLPAERQTLLFSATQTRNVKDLCRVCTNDPVFVSVHENASAATPDNLKQSYVIVEEEHKINALWSFIEAHRKKKSLVFVSSCKQARFLTEAFSQLRPGLPVMGLWGTMNQKKRIETFTKFDESKAAVLIATDVASRGLDFEHIDWVIQVDCPAQIDDYIHRVGRSARMDDSGNSLLMVSPSQEEAMIGKLEKHSIPIEELKIHPDAMSDVRVKLRAILAESQELKEYAQKSIVAYLRSIYTMKDKKVFDVEAIDAAALADSFGLVSVPRVRFLNKKAKKSGEKLMEKEVKEEEEEASLVGKFAIDEDDEDIFTVKKPTGEPEQIKEEEAAEKISNITISKTKPLKKAVTKVSAAKKILNKKLKVNTKKTFGAEDDELEELEEGPSTITSYGLDIEKARQEIKSGDKEDRKRFKLLREQRRQEKLAKKNRRAEEEEAVEYDEDGSEDEPDISWLPDPDAVRRKYEEEPDEVEDLEQQALAALGRK	not soluble
MPIATVCTWPAETEGGSTVVAADHASNYARKLGIQRDQLIQEWGWDEDTDDDIRAAIEEACGGELLDEDTDEVIDVVLLWWRDGDGDLVDTLMDAIGPLAEDGVIWVVTPKTGQPGHVLPAEIAEAAPTAGLMPTSSVNLGNWSASRLVQPKSRAGKR	soluble
MPIRAMEKATAGKLLTRAEALSLLTEGDLLALGRLADAVRRRMHPENLVTFVVDRNVNYTNVCESKCKFCAFYRDEAAPDAYLLAEEAIFAKIAELVEHGGTQLLMQGGLHPQLGIDWFEDLFRGIKARFPQVQNHSLSPAEITQIATVSKLTIPETVRRLREAGLDSIPGGGAEILVDSVRQEISPRKIGWEGWAAVMSEAARQGMATTATMMFGSRETPEDIVEHLFRVRELQAAGGSFTAFIPWTYQPGNTELGGTGATGVEYLKVLALSRIVLDNIPSIQASWVTQGAAMAQVSLFFGANDLGGTMLEENVVAAAGCTFRMSREEMVELIREAGFRAAQRTTLYSIIREY	not soluble
MPITIGNGFLKSEILTNSPRNTKEAWWKVLWEKIKDFFFSTGKAKADRCLHEMLFAERAPTRERLTEIFFELKELACASQRDRFQVHNPHENDATIILRIMDQNEENELLRITQNTDTFSCEVMGNLYFLMKDRPDILKSHPQMTAMIKRRYSEIVDYPLPSTLCLNPAGAPILSVPLDNIEGYLYTELRKGHLDGWKAQEKATYLAAKIQSGIEKTTRILHHANISESTQQNAFLETMAMCGLKQLEIPPPHTHIPIEKMVKEVLLADKTFQAFLVTDPSTSQSMLAEIVEAISDQVFHAIFRIDPQAIQKMAEEQLTTLHVRSEQQSGCLCCFLLEHHHHHH	soluble
MPKHIIDEIESLSLATGFILKNGDFTEEKSLLVKPTMGGTWHWSPIKGLHSQDSIRKTRAYILQEIARMTIYPEAGVSPTLRRKKGIVIGVARAVSTELYHIVENDLIEEEMDTAKLAVGYDGETIVIKNDVDSKWKEELSKPLNLSETENKVIQRLLLISHGVIPLQGYSLVTTSHHYNDKSKRAFSAVERQFFSRCDQLSWWKEDEEALRDAMWHKAGHPVKISFKKEIACSITIKQSLANAGIGSVACRLPATEDVVWKAEAYRNLLKTLSPIFDDEVKWEALDEMLSYLNHFSAARPTEVVTVHNAPTHLMSLDTREKVVTWIAQWCSQNAEKVAICLGFHTALLENAGKFPGPSYSLMVLRTNVDSYILGTKLFSDYTVFKAKLRQLMDSVS	soluble
MPKKILFTGGGTVGHVTLNLILIPKFIKDGWEVHYIGDKNGIEHTEIEKSGLDVTFHAIATGKLRRYFSWQNLADVFKVALGLLQSLFIVAKLRPQALFSKGGFVSVPPVVAAKLLGKPVFIHESDRSMGLANKIAYKFATTMYTTFEQEDQLSKVKHLGAVTKVFKDANQMPESTQLEAVKEYFSRDLKTLLFIGGSAGAHVFN	not soluble
MPKMIMVNKKASESQVMELEKRNYNNPVVLCGFAGSTPTGVLAASYIVETLGMHQVAHLISQHIPPVAVFVGGKLRHPFRIYANNSNTVLVAMCEVPISSAHIYEISNTLMNWIDQVGASEIVIMEGSPANGIPEERPVFAVAEKPKLDKFKKAGIQPADSAIIAGMGGGILNECLVRKITGLSFITPTSVDIPDPGAVLSIIEAINKAYNLKIKTDLLEEQVKALDEQIKKIEEQYKELQEKQKEPQSMYG	soluble
MPKNTKKSQGNKKLEMTNKQFDDLLKEMGGLPEGMNLDPELLAVLRQATNAEFNKVAKEKYGDVPEGSDDDEEQQTSEQNKEQQQSSSSKST	not soluble
MPKRNDIKTILVIGSGPIIIGQAAEFDYAGTQACLALKEEGYRVILVNSNPATIMTDKEIADKVYIEPLTHDFIARIIRKEQPDALLPTLGGQTGLNMAIQLHESGVLQDNNVQLLGTELTSIQQAEDREMFRTLMNDLNVPVPESDIVNTVEQAFKFKEQVGYPLIVRPAFTMGGTGGGICHNDEELHEIVSNGLHYSPATQCLLEKSIAGFKEIEYEVMRDKNDNAIVVCNMENIDPVGIHTGDSIVVAPSQTLSDVEYQMLRDVSLKVIRALGIEGGCNVQLALDPHSFDYYIIEVNPRVSRSSALASKATGYPIAKLAAKIAVGLTLDEMLNPITGTSYAAFEPTLDYVISKIPRFPFDKFEKGERELGTQMKATGEVMAIGRTYEESLLKAIRSLEYGVHHLGLPNGESFDLDYIKERISHQDDERLFFIGEAIRRGTTLEEIHNMTQIDYFFLHKFQNIIDIEHQLKEHQGDLEYLKYAKDYGFSDKTIAHRFNMTEEEVYQLRMENDIKPVYKMVDTCAAEFESSTPYYYGTYETENESIVTDKEKILVLGSGPIRIGQGVEFDYATVHAVWAIQKAGYEAIIVNNNPETVSTDFSISDKLYFEPLTEEDVMNIINLEKPKGVVVQFGGQTAINLADKLAKHGVKILGTSLENLNRAEDRKEFEALLRKINVPQPQGKTATSPEEALANAAEIGYPVVVRPSYVLGGRAMEIVDNDKELENYMTQAVKASPEHPVLVDRYLTGKEIEVDAICDGETVIIPGIMEHIERAGVHSGDSIAVYPPQTLTEDELATLEDYTIKLAKGLNIIGLINIQFVIAHDGVYVLEVNPRSSRTVPFLSKITDIPMAQLAMRAIIGEKLTDMGYQEGVQPYAEGVFVKAPVFSFNKLKNVDITLGPEMKSTGEVMGKDTTLEKALFKGLTGSGVEVKDHGTVLMTVSDKDKEEVVKLAQRLNEVGYKILATSGTANKLAEYDIPAEVVGKIGGENDLLTRIQNGDVQIVINTMTKGKEVERDGFQIRRTTVENGIPCLTSLDTANALTNVIESMTFTMRQM	not soluble
MPKTQSAAGYKAGVKDYKLTYYTPDYTPKDTDLLAAFRFSPQPGVPADEAGAAIAAESSTGTWTTVWTDLLTDMDRYKGKCYHIEPVQGEENSYFAFIAYPLDLFEEGSVTNILTSIVGNVFGFKAIRSLRLEDIRFPVALVKTFQGPPHGIQVERDLLNKYGRPMLGCTIKPKLGLSAKNYGRAVYECLRGGLDFTKDDENINSQPFQRWRDRFLFVADAIHKSQAETGEIKGHYLNVTAPTCEEMMKRAEFAKELGMPIIMHDFLTAGFTANTTLAKWCRDNGVLLHIHRAMHAVIDRQRNHGIHFRVLAKCLRLSGGDHLHSGTVVGKLEGDKASTLGFVDLMREDHIEADRSRGVFFTQDWASMPGVLPVASGGIHVWHMPALVEIFGDDSVLQFGGGTLGHPWGNAPGATANRVALEACVQARNEGRDLYREGGDILREAGKWSPELAAALDLWKEIKFEFETMDKL	soluble
